According to PMC9426481, “Structure and Function of BcpE2, the Most Promiscuous GH3-Family Glucose Scavenging Beta-Glucosidase” (mBio, 2022):

What was measured:
[1] = target: T1, BglC (His6-BglC) (Streptomyces scabiei, UniProt C9Z448); experiment: glucose release; substrate inhibition fit; type: biochemical; conditions: Ki of substrate inhibition
T1 construct: gene SCAB_57721; N-terminal His6 tag kept; plasmid pSAJ022; host E. coli BL21(DE3) Rosetta

[2] = target: T2, BcpE2 (Streptomyces scabiei, UniProt C9ZDY4); experiment: TLC hydrolysis assay with purified enzyme (complete hydrolysis); type: biochemical
T2 construct: gene SCAB_64101; BcpE2-His6

[3] = substrate: COc1cc2ccc(=O)oc2cc1O[C@@H]1O[C@H](CO)[C@@H](O)[C@H](O)[C@H]1O; experiment: purified protein; type: biochemical, Streptomyces scabiei
[4] = substrate: OC/C=C/c1ccc(O[C@@H]2O[C@H](CO)[C@@H](O)[C@H](O)[C@H]2O)cc1; experiment: purified protein; type: biochemical, Streptomyces scabiei
[5] = substrate: OC[C@H]1O[C@@H](Oc2ccc(O)cc2)[C@H](O)[C@@H](O)[C@@H]1O; experiment: Hydrolysis kinetics (glucose release, Km) and TLC with purified enzyme; type: biochemical, Streptomyces scabiei
[6] = substrate: OC[C@H]1O[C@@H](O[C@H]2[C@H](O)[C@@H](CO)OC(O)[C@@H]2O)[C@H](O)[C@@H](O)[C@@H]1O; experiment: as above; type: biochemical, Streptomyces scabiei
[7] = substrate: COc1cc(/C=C/CO)cc(OC)c1O[C@@H]1O[C@H](CO)[C@@H](O)[C@H](O)[C@H]1O; experiment: as above; type: biochemical, Streptomyces scabiei
[8] = substrate: OCc1ccccc1O[C@@H]1O[C@H](CO)[C@@H](O)[C@H](O)[C@H]1O; experiment: as above; type: biochemical, Streptomyces scabiei
[9] = substrate: COc1cc(/C=C/CO)ccc1O[C@@H]1O[C@H](CO)[C@@H](O)[C@H](O)[C@H]1O; experiment: as above; type: biochemical, Streptomyces scabiei

T1 sequence (C9Z448 entry or part of it): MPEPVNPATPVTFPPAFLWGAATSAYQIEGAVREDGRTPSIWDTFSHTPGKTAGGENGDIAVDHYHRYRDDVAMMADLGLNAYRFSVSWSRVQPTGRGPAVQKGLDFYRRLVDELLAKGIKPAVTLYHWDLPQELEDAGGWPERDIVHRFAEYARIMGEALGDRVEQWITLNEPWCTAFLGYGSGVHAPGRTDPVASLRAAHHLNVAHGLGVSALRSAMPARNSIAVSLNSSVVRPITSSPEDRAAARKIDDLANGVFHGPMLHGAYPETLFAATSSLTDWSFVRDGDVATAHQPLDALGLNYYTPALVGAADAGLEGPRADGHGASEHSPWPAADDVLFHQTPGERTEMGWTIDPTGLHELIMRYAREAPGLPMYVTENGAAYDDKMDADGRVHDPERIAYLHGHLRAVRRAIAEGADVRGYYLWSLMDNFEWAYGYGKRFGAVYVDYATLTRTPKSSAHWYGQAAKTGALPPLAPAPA

Molecule: COc1cc2ccc(=O)oc2cc1O[C@@H]1O[C@H](CO)[C@@H](O)[C@H](O)[C@H]1O [Scopolin]
- Ki [1]: the Ki value for BcpE2 appeared to be lower, indicating a stronger inhibition compared to BglC

Molecule: OC[C@H]1O[C@@H](Oc2cc3c(O[C@@H]4O[C@H](CO)[C@@H](O)[C@H](O)[C@H]4O)cc(O)cc3[o+]c2-c2ccc(O)c(O)c2)[C@H](O)[C@@H](O)[C@@H]1O [Cyanin]
- TLC hydrolysis assay with purified enzyme (complete hydrolysis) [2]: Cyanin (Cyanidin-3,5-di-O-glucoside)|Antho-cyanosides|+|−|NT|NT|NT|NT

Molecule: CC(C)(C#N)O[C@@H]1O[C@H](CO)[C@@H](O)[C@H](O)[C@H]1O [Linamarin]
- TLC hydrolysis assay with purified enzyme (complete hydrolysis) [2]: Linamarin|Cyanogenic glycosides|+|−|NT|NT|NT|NT

B1: BcpE2 (Streptomyces scabiei 87.22) (protein)
chain: MAATPGTRTTPADEAREAAVEKALAALDLDAKARLLSGQDMWTLPALPEIGLASLVMSDGPIGVRGVRWTADDPSVALPSPTALAATWDPGLARRAGVLLAQEARRKGVHVLLAPTVNLHRSPLGGRHFEAYSEDPYLTGEIGSGYVTGVQAGGVGTTVKHFVANDAETDRFTVNNLVSARALRELYLAPFEAIVANAHPWGIMTAYNQVNGSTMTEHRYLVNEVLRGEWGFDGFNVSDWLAARSTTGALTGGLDVAMPGPATVYGEPLAAAVRAGEVTESLLDEAVRRVLRLAARVGILEGAAPAVTELPAPVDGEALAREIARRSFVLVRNEVRDGRAALPLEQGATVALIGAAARDARVLGGGSATVFPARVVSPLDGLTAALPEGAPTYALGADPNEELAVADTGFTLRAVCRDASGTVIGTRSAPNGHIQWMGSDLPDGVTHATLHSVELTGTFTPRETGTHTFGVKGLGAYTLTVDGTTHFDGVRTTDTDDPFVSFFGAPVPLAEVELTEGTPLEVSLTHVVELAADAPITMLAFSLCHQEPQRDPDELIAEAVEAARAADTAVVVVATTERVESEGFDRKDLRLPGRQDDLVRAVAAANPATVVVVNAGSPVELPWREDVAAVLLTWFPGQEGGAALAEVLTGAHEPGGRLPTTWGSLTGAPVTQVTPTAGELVYDEGVFIGYRAWDKEDRTPTYPFGHGLGYTDWTYESLDVTGTTATVRVRNTGTREGRETVQLYLAPTTADENRPTRWLAGFATVEAAPGETAEAVVRLPRRAFEIWDETTGAWVYVTGSYEVAAGRSIADRRTRVTIEAP
notes: BcpE2-His6
- Km [3]: 356 µM
- kcat [3]: 192 s⁻¹
- kcat/Km [3]: 540000 M⁻¹ s⁻¹
- Km [4]: 236 µM
- kcat [4]: 77.2 s⁻¹
- kcat/Km [4]: 326000 M⁻¹ s⁻¹
- Km [5]: 367 ± 80 µM
- kcat [5]: 43.2 ± 2.5 s⁻¹
- kcat/Km [5]: 117000 M⁻¹ s⁻¹
- Km [6]: 6557 ± 1410 µM
- kcat [6]: 8.74 ± 1.02 s⁻¹
- kcat/Km [6]: 1330 M⁻¹ s⁻¹
- Km [7]: 608 ± 166 µM
- kcat [7]: 26.4 ± 3.07 s⁻¹
- kcat/Km [7]: 43500 M⁻¹ s⁻¹
- Km [8]: 142 ± 30 µM
- kcat [8]: 53.2 ± 2.37 s⁻¹
- kcat/Km [8]: 376000 M⁻¹ s⁻¹
- Km [9]: 151 ± 43 µM
- kcat [9]: 83.3 ± 5.9 s⁻¹
- kcat/Km [9]: 551000 M⁻¹ s⁻¹
